B1: Hammerhead Ribozyme (parent)
chain: ACCGGAUGUGCUUUCCGGUCUGAUGAGUCCGUGAGGACGAAACAG

Variants of: B1
Experiment: self-cleavage, relative activity (ratio to wild type); higher = more cleavage; co-transcriptional

Variant | self-cleavage
ACCGGAUGUGCUUUCCGUUCUGACGAGUCCGUGAGGACGAAACAG [G18U U24C] | 0.642
ACCGGAUGUGUUUUCCGGUCUGGUGAGUCCGUGAGGACGAAACAG [C11U A23G] | 0.39
ACCGGAUGUGCUUUCCGGUCUGAUGAGUCCGUAAGGACGAAACGG [G33A A44G] | 1.59
CCCGGAUGUGCUUUCCGGUCUGAUGAGUCCGUGAUGACGAAACAG [A1C G35U] | 0.435
ACCGGAUGUGCUUUCCGGCCUGAUGAGUCCGUGAGGACGACACAG [U19C A41C] | 0.429
ACCGGAUGUGCUUUCCGGUCGGAUGAGUCCGUGAGUACGAAACAG [U21G G36U] | 0.333
ACCAGAUGUGCUUUCCGGUCUGAUGAGUCCGUGCGGACGAAACAG [G4A A34C] | 0.35
ACCGGAUGUGCUUUCCGGUCUGAUGAGUCCGAGAGGACGACACAG [U32A A41C] | 0.347
ACCGGAUGUGCUUUCCGGACUCAUGAGUCCGUGAGGACGAAACAG [U19A G22C] | 0.356
ACCGGAUGUGCUUUCCGGUCUAAUGAGUCCGUGGGGACGAAACAG [G22A A34G] | 0.365
ACCGGAUGUGAUUUCCGGUCUGAUGAGUCCGUGAGGUCGAAACAG [C11A A37U] | 0.633
ACCGGAUGCGCUUUCCGGUCUGAUGAGUCCGUGAGGACUAAACAG [U9C G39U] | 0.264
ACCGGAUAUGCUUUCCGGUCUGAUGAGUCCGUGAGGACGGAACAG [G8A A40G] | 0.235
ACCGGUUGUGCUUUCCGGUCUGAUGAGUCCGUGUGGACGAAACAG [A6U A34U] | 0.631
ACCGGAUGUGCUUUCAGGUCUGAUGAGACCGUGAGGACGAAACAG [C16A U28A] | 0.434
ACCGGGUGUGCUUUCCGGUCUGAUCAGUCCGUGAGGACGAAACAG [A6G G25C] | 0.283
ACCGGAUGAGCUUUCCGGUCUGAUGAGUCCGUGUGGACGAAACAG [U9A A34U] | 0.941
ACCGGAUUUGCUUGCCGGUCUGAUGAGUCCGUGAGGACGAAACAG [G8U U14G] | 0.94
ACCGGAUGUGCUCUCCGGUCUGAUGAGUCCGUGAGGACGAAACAU [U13C G45U] | 0.965

Variant | self-cleavage
CCCGGAUGUGCUUUCCGGACUGAUGAGUCCGUGAGGACGAAACAG [A1C U19A] | 0.344
ACCGGAUUGGCUUUCCGGUCUGAUGAGUCCGUGAGGACGAAACAG [G8U U9G] | 0.751
ACCGGAUGUGCUUUCCGGUCUGGUGAGUCCAUGAGGACGAAACAG [A23G G31A] | 0.403
ACCGGAUGUGCUUUCCGGUUUGAUGAGCCCGUGAGGACGAAACAG [C20U U28C] | 0.661
ACCGGAUGUGGUUUCCGGUCGGAUGAGUCCGUGAGGACGAAACAG [C11G U21G] | 0.847
ACCGGAUGUGCUUUCCGGUUUGAUGAGUCCGUGAUGACGAAACAG [C20U G35U] | 0.347
ACCGGAUGUGCUUUCCGGUCUGAUGAGUCCGCGAGGACGUAACAG [U32C A40U] | 0.306
ACCGGAUGUGCUUUCCGGUCUGAUGAGUCCGCGAGGACGCAACAG [U32C A40C] | 0.626
ACCUGUUGUGCUUUCCGGUCUGAUGAGUCCGUGAGGACGAAACAG [G4U A6U] | 0.387
ACGGGAUGUGAUUUCCGGUCUGAUGAGUCCGUGAGGACGAAACAG [C3G C11A] | 0.702
ACCGGAUGUGUUUUCCGGUCUGAUGAGUUCGUGAGGACGAAACAG [C11U C29U] | 0.897
ACCGGAUGUGCUCUCCGGUCUGAUGAGUCCGUGAAGACGAAACAG [U13C G35A] | 0.552
ACCGGAUGUGCUUUCCGGUCUGAUUAGUCCGUGAGUACGAAACAG [G25U G36U] | 0.334
ACCGGAUGUGGUUUCCGGUCUGAUGGGUCCGUGAGGACGAAACAG [C11G A26G] | 0.393
AUCGGCUGUGCUUUCCGGUCUGAUGAGUCCGUGAGGACGAAACAG [C2U A6C] | 0.429
ACCGGAUGUGCUUUCCGGACUGAUGAGUCCGUGAGGACGUAACAG [U19A A40U] | 0.35
ACCGGAUGUGUUUUCCGGUCUGAUGAGUCCGUGAGGUCGAAACAG [C11U A37U] | 0.665
ACCGGAUGUCCUUUCCGGUCUGGUGAGUCCGUGAGGACGAAACAG [G10C A23G] | 0.309
ACCGGAUGUGCUUUCCGUUCUGAUGAGUCCGUGAGGACGAAACAU [G18U G45U] | 0.475

Variant | self-cleavage
ACCGGAUGUGCCUUCCGGUCUGAUGAGUCCGUGAGCACGAAACAG [U12C G36C] | 0.713
ACCGGAUGUGCUUUCUGGUCUGAUGAGUCCGUGAGGUCGAAACAG [C16U A37U] | 0.848
ACCGGAUGUGCUUUCCGGUCUGACGAGUCCGUGAGGACCAAACAG [U24C G39C] | 0.352
ACCGGAUGUGCUUUCCAGUCGGAUGAGUCCGUGAGGACGAAACAG [G17A U21G] | 0.39
ACCGGAUGUGCUUUCCGGUCUGACGAGUCCGUGAGGACGAAACAU [U24C G45U] | 0.669
ACCGGAUGUGCUUUCCGCUCUGAUGCGUCCGUGAGGACGAAACAG [G18C A26C] | 0.354
ACCGGAUGUGCUUUCCGGUCUGAUGAGUCCUUGAGGACGAACCAG [G31U A42C] | 0.363
ACCGGAUGUGCUUUCCGGUCUGAUGAGUCCGUGAGGACGGGACAG [A40G A41G] | 0.346
ACCGGAUGUGCUUUCCGGUCUGAUGAGUCCGUGAGGGCGAUACAG [A37G A41U] | 0.378
ACCGGAUGUGCUCGCCGGUCUGAUGAGUCCGUGAGGACGAAACAG [U13C U14G] | 0.364
ACCGGAUGUGCUUUGCGGUCUGAUGAGUCCGUGAGGGCGAAACAG [C15G A37G] | 0.535
ACCGGAUGUGCUUUCCGGUCUGAUGAGUCCGUGGCGACGAAACAG [A34G G35C] | 0.771
ACCGGAUUUGCUUUCGGGUCUGAUGAGUCCGUGAGGACGAAACAG [G8U C16G] | 0.731
ACCGGAAGUGCUUACCGGUCUGAUGAGUCCGUGAGGACGAAACAG [U7A U14A] | 1.15
ACCGGAUGUGAUUUCCGGUCUGAUGAGUCCGAGAGGACGAAACAG [C11A U32A] | 1.4
ACCGGAUGUGCUUUCCGGACUGAUGCGUCCGUGAGGACGAAACAG [U19A A26C] | 0.364
UCCGGAUGUGAUUUCCGGUCUGAUGAGUCCGUGAGGACGAAACAG [A1U C11A] | 1.01
ACCGGCUGUGCUUUGCGGUCUGAUGAGUCCGUGAGGACGAAACAG [A6C C15G] | 0.559
ACCGGAUGUGGUUUCCGGUCUGAUGAGUCCGUGAGGACGAAAGAG [C11G C43G] | 0.29
